Assay [1] can be described thus: cytotoxicity of immunotoxins and blocking of LMIT-2 by LMIT-3 (FIG. 2B). The format is cell-based.
Assay [2] deals with many cell lines. Put plainly: molar activity in vitro against many cell lines (FIG. 3B). In kind it is cell-based. The settings on record: on average, PV from published activity. The protocol: FIG. 3: Activity of Duotoxins in vitro.
LMIT-2-DM1 was tested against various cell lines (FIG. 3A). […] Cells like DOHH-2 that are resistant to immunotoxins were sensitive to the LMIT-2-DM1. We have not found a cell line which is resistant to both, the PE and the DM1 in vitro. […] On average 3.6 DM1 molecules per LMIT-3 molecule were coupled. […] The activity of PV varies substantially over a 3-log concentration range. […] The activity is tested by plating the above described cell lines at 20,000 cells per well in a 96-well plate. The immunotoxin or duotoxin is added at indicated concentrations in a three-fold serial dilution, the cells incubated in a humidified incubator for 72 hours. The cells are then collected by centrifugation, stained with 7-AAD and Annexin V and cell death determined by flow cytometry. The concentration at which 50% of the cells are killed (IC50) reflects the activity of a drug against a cell and is determined from the flow cytometry data by non-linear regression analysis.

The test system of assay [3] is many cell lines. The settings on record: published activity of PV; cited from earlier work.

B1: Moxe: reference immunotoxin compared with LMIT-2 in FIG. 2B; not further defined in the text (antibody, chains of the INN, looked up, V domains shown)
VH: EVQLVESGGGLVKPGGSLKLSCAASGFAFSIYDMSWVRQTPEKCLEWVAYISSGGGTTYYPDTVKGRFTISRDNAKNTLYLQMSSLKSEDTAMYYCARHSGYGTHWGVLFAYWGQGTLVTVSA
VL: DIQMTQTTSSLSASLGDRVTISCRASQDISNYLNWYQQKPDGTVKLLIYYTSILHSGVPSRFSGSGSGTDYSLTISNLEQEDFATYFCQQGNTLPWTFGCGTKLEI
modifications: pasudotox (PE38 toxin fusion)
notes: not further defined in the text
Take B1: the “activity of LMIT-2 compared with Moxe” value in assay [1] is on record as “comparable activity”.

B2: PV: CD22-targeting IgG-based ADC, antibody conjugated with MMAE (conjugate, chains of the INN, looked up)
VH: EVQLVESGGGLVQPGGSLRLSCAASGYEFSRSWMNWVRQAPGKGLEWVGRIYPGDGDTNYSGKFKGRFTISADTSKNTAYLQMNSLRAEDTAVYYCARDGSSWDWYFDVWGQGTLVTVSS
VL: DIQMTQSPSSLSASVGDRVTITCRSSQSIVHSVGNTFLEWYQQKPGKAPKLLIYKVSNRFSGVPSRFSGSGSGTDFTLTISSLQPEDFATYYCFQGSQFPYTFGQGTKVEIK
modifications: vedotin (MMAE) payload
Turning to B2, the “activity relative to LMIT-2 (less active)” value in the assay with many cell lines [2] amounted to 3 logs. The “variation of activity over concentration range” value in the assay on many cell lines [3] was 3 log.

The values are drawn from patent US20200384118A1, “IMMUNOTOXIN CONJUGATES FOR USE IN THERAPY” (FRIEDRICH-ALEXANDER-UNIVERSITAT ERLANGEN-NURNBERG, priority 2017, published 2020).
